Test [1] deals with T1, mouse calmodulin (mouse, UniProt P0DP26 1-149).
T1 construct: also called mCaM; CaM; source: E. coli BL21 (DE3) pLysS, purified (Phenyl Sepharose)
Nature of the test: SPR; Biacore 2000; biotinylated T1r peptides on a CAP chip (Biotin CAPture Kit); mCaM injected, 2-fold dilutions from 50 μM, +Ca2+ (1 mM CaCl2), 25°C, 30 μl/min; KD from equilibrium responses, 1:1 model. As to conditions: both partners purified.

Test [2] deals with T1, mouse calmodulin. Nature of the test: pull-down; His-tagged ySUMO-fusion protein on Ni-NTA Superflow, ySUMO portion denatured with 6 M guanidine chloride; 0.6 μM mCaM in +Ca2+ buffer (150 mM NaCl, 0.1% Tween 20, 1 mM CaCl2, pH 7.5), 4°C, 2 h; CaM detected by western blot. To be noted: both partners purified.

No end group written: not given here. *: point of attachment. Biotin = O=C1N[C@H]2[C@H](CS[C@H]2CCCCC(=O)*)N1

The values below come from publication PMC11033526 (Journal of Biochemistry, 2023).

B1: biotin-mT1r2 CT peptide (cytosolic C-terminal region of mouse taste receptor type 1 subunit 2) (peptide)
peptide: Biotin-GGSGGSPKCYMILFYPERNTSAYFNSMIQGYTMRKS
notes: N-terminal linker segment; mouse T1r2, cytosolic C-terminal region as defined by TMHMM, residues 814-843; source: synthetic peptide (Hokkaido System Science, ~90% purity)
In the test with mouse calmodulin [1], B1 returned a Kd of 27 µM.

B2: FLAG-ySUMO-mT1r1 CT (domain or fragment)
chain: PKCYVILCRPELNNTEHFQASIQDYTRRCGTT
notes: mouse T1r1, cytosolic C-terminal region (CT), residues 811-842; On the Ni-NTA beads the ySUMO portion was denatured with 6 M guanidine chloride before mCaM was added; also called ySUMO-fusion protein of the mT1r1 C-terminal region; source: E. coli BL21 (DE3), purified (Ni-NTA); not shown: FLAG, N-terminal, kept; ySUMO, N-terminal, kept; His8, C-terminal, kept
For B2, the binding result with mouse calmodulin [2] is on record as “binds”.

B3: FLAG-ySUMO-mT1r2 CT (domain or fragment)
chain: PKCYMILFYPERNTSAYFNSMIQGYTMRKS
notes: mouse T1r2, cytosolic C-terminal region (CT), residues 814-843; On the Ni-NTA beads the ySUMO portion was denatured with 6 M guanidine chloride before mCaM was added; also called ySUMO-fusion protein of the mT1r2 C-terminal region; source: E. coli BL21 (DE3), purified (Ni-NTA); not shown: FLAG, N-terminal, kept; ySUMO, N-terminal, kept; His8, C-terminal, kept
As to B3, the binding result with mouse calmodulin [2] was “binds”.
